B1: ATP synthase mitochondrial F1 complex assembly factor 2 (Homo sapiens), Q8N5M1 (parent)
chain: MWRSCLRLRDGGRRLLNRPAGGPSASMSPGPTIPSPARAYAPPTERKRFYQNVSITQGEGGFEINLDHRKLKTPQAKLFTVPSEALAIAVATEWDSQQDTIKYYTMHLTTLCNTSLDNPTQRNKDQLIRAAVKFLDTDTICYRVEEPETLVELQRNEWDPIIEWAEKRYGVEISSSTSIMGPSIPAKTREVLVSHLASYNTWALQGIEFVAAQLKSMVLTLGLIDLRLTVEQAVLLSRLEEEYQIQKWGNIEWAHDYELQELRARTAAGTLFIHLCSESTTVKHKLLKE
partner: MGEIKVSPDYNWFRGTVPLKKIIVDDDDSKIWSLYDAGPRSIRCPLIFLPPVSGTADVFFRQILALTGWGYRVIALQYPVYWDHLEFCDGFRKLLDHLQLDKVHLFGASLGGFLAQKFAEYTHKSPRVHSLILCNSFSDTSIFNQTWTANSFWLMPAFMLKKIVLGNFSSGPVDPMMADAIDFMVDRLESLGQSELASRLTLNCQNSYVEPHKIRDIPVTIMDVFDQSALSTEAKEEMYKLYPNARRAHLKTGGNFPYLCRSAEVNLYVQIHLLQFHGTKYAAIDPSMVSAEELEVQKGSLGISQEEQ
B2: Emerin (Homo sapiens), P50402 (parent)
chain: MDNYADLSDTELTTLLRRYNIPHGPVVGSTRRLYEKKIFEYETQRRRLSPPSSSAASSYSFSDLNSTRGDADMYDLPKKEDALLYQSKGYNDDYYEESYFTTRTYGEPESAGPSRAVRQSVTSFPDADAFHHQVHDDDLLSSSEEECKDRERPMYGRDSAYQSITHYRPVSASRSSLDLSYYPTSSSTSFMSSSSSSSSWLTRRAIRPENRAPGAGLGQDRQVPLWGQLLLFLVFVIVLFFIYHFMQAEEGNPF
partner: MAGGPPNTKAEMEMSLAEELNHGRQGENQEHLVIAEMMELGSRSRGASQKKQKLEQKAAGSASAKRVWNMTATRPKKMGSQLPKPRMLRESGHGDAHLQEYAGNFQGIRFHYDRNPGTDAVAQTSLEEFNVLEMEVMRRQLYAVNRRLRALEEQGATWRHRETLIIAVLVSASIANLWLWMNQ
B3: PiggyBac transposable element-derived protein 1 (Homo sapiens), Q96JS3 (parent)
chain: MYEALPGPAPENEDGLVKVKEEDPTWEQVCNSQEGSSHTQEICRLRFRHFCYQEAHGPQEALAQLRELCHQWLRPEMHTKEQIMELLVLEQFLTILPKELQPCVKTYPLESGEEAVTVLENLETGSGDTGQQASVYIQGQDMHPMVAEYQGVSLECQSLQLLPGITTLKCEPPQRPQGNPQEVSGPVPHGSAHLQEKNPRDKAVVPVFNPVRSQTLVKTEEETAQAVAAEKWSHLSLTRRNLCGNSAQETVMSLSPMTEEIVTKDRLFKAKQETSEEMEQSGEASGKPNRECAPQIPCSTPIATERTVAHLNTLKDRHPGDLWARMHISSLEYAAGDITRKGRKKDKARVSELLQGLSFSGDSDVEKDNEPEIQPAQKKLKVSCFPEKSWTKRDIKPNFPSWSALDSGLLNLKSEKLNPVELFELFFDDETFNLIVNETNNYASQKNVSLEVTVQEMRCVFGVLLLSGFMRHPRREMYWEVSDTDQNLVRDAIRRDRFELIFSNLHFADNGHLDQKDKFTKLRPLIKQMNKNFLLYAPLEEYYCFDKSMCECFDSDQFLNGKPIRIGYKIWCGTTTQGYLVWFEPYQEESTMKVDEDPDLGLGGNLVMNFADVLLERGQYPYHLCFDSFFTSVKLLSALKKKGVRATGTIRENRTEKCPLMNVEHMKKMKRGYFDFRIEENNEIILCRWYGDGIISLCSNAVGIEPVNEVSCCDADNEEIPQISQPSIVKVYDECKEGVAKMDQIISKYRVRIRSKKWYSILVSYMIDVAMNNAWQLHRACNPGASLDPLDFRRFVAHFYLEHNAHLSD
partner: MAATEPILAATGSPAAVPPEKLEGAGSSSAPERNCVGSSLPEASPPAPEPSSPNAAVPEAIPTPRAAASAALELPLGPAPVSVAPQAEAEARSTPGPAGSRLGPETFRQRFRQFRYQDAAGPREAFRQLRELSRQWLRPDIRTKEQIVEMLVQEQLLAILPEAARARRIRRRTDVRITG
B4: U4/U6 small nuclear ribonucleoprotein Prp31 (Homo sapiens), Q8WWY3 (parent)
chain: MSLADELLADLEEAAEEEEGGSYGEEEEEPAIEDVQEETQLDLSGDSVKTIAKLWDSKMFAEIMMKIEEYISKQAKASEVMGPVEAAPEYRVIVDANNLTVEIENELNIIHKFIRDKYSKRFPELESLVPNALDYIRTVKELGNSLDKCKNNENLQQILTNATIMVVSVTASTTQGQQLSEEELERLEEACDMALELNASKHRIYEYVESRMSFIAPNLSIIIGASTAAKIMGVAGGLTNLSKMPACNIMLLGAQRKTLSGFSSTSVLPHTGYIYHSDIVQSLPPDLRRKAARLVAAKCTLAARVDSFHESTEGKVGYELKDEIERKFDKWQEPPPVKQVKPLPAPLDGQRKKRGGRRYRKMKERLGLTEIRKQANRMSFGEIEEDAYQEDLGFSLGHLGKSGSGRVRQTQVNEATKARISKTLQRTLQKQSVVYGGKSTIRDRSSGTASSVAFTPLQGLEIVNPQAAEKKVAEANQKYFSSMAEFLKVKGEKSGLMST
partner: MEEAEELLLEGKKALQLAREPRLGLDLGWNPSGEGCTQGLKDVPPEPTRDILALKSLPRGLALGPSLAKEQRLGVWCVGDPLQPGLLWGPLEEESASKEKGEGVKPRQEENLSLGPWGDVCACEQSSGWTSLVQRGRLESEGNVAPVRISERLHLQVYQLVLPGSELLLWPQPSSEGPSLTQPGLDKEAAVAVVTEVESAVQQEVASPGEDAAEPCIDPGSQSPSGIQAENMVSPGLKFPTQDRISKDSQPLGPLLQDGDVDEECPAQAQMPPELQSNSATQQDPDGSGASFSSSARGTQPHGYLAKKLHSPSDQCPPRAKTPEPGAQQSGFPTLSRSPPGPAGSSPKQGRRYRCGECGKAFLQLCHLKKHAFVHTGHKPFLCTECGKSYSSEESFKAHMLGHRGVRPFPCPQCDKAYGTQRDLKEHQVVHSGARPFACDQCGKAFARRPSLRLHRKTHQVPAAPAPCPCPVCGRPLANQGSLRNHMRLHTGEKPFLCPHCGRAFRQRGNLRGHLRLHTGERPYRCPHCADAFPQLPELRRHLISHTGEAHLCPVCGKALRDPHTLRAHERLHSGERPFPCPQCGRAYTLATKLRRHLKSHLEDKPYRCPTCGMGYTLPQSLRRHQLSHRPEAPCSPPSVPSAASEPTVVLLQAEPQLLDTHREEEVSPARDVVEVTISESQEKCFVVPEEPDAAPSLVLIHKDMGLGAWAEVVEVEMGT
B5: Glycogen phosphorylase, liver form (Homo sapiens), P06737 (parent)
chain: MAKPLTDQEKRRQISIRGIVGVENVAELKKSFNRHLHFTLVKDRNVATTRDYYFALAHTVRDHLVGRWIRTQQHYYDKCPKRVYYLSLEFYMGRTLQNTMINLGLQNACDEAIYQLGLDIEELEEIEEDAGLGNGGLGRLAACFLDSMATLGLAAYGYGIRYEYGIFNQKIRDGWQVEEADDWLRYGNPWEKSRPEFMLPVHFYGKVEHTNTGTKWIDTQVVLALPYDTPVPGYMNNTVNTMRLWSARAPNDFNLRDFNVGDYIQAVLDRNLAENISRVLYPNDNFFEGKELRLKQEYFVVAATLQDIIRRFKASKFGSTRGAGTVFDAFPDQVAIQLNDTHPALAIPELMRIFVDIEKLPWSKAWELTQKTFAYTNHTVLPEALERWPVDLVEKLLPRHLEIIYEINQKHLDRIVALFPKDVDRLRRMSLIEEEGSKRINMAHLCIVGSHAVNGVAKIHSDIVKTKVFKDFSELEPDKFQNKTNGITPRRWLLLCNPGLAELIAEKIGEDYVKDLSQLTKLHSFLGDDVFLRELAKVKQENKLKFSQFLETEYKVKINPSSMFDVQVKRIHEYKRQLLNCLHVITMYNRIKKDPKKLFVPRTVIIGGKAAPGYHMAKMIIKLITSVADVVNNDPMVGSKLKVIFLENYRVSLAEKVIPATDLSEQISTAGTEASGTGNMKFMLNGALTIGTMDGANVEMAEEAGEENLFIFGMRIDDVAALDKKGYEAKEYYEALPELKLVIDQIDNGFFSPKQPDLFKDIINMLFYHDRFKVFADYEAYVKCQDKVSQLYMNPKAWNTMVLKNIAASGKFSSDRTIKEYAQNIWNVEPSDLKISLSNESNKVNGN
partner: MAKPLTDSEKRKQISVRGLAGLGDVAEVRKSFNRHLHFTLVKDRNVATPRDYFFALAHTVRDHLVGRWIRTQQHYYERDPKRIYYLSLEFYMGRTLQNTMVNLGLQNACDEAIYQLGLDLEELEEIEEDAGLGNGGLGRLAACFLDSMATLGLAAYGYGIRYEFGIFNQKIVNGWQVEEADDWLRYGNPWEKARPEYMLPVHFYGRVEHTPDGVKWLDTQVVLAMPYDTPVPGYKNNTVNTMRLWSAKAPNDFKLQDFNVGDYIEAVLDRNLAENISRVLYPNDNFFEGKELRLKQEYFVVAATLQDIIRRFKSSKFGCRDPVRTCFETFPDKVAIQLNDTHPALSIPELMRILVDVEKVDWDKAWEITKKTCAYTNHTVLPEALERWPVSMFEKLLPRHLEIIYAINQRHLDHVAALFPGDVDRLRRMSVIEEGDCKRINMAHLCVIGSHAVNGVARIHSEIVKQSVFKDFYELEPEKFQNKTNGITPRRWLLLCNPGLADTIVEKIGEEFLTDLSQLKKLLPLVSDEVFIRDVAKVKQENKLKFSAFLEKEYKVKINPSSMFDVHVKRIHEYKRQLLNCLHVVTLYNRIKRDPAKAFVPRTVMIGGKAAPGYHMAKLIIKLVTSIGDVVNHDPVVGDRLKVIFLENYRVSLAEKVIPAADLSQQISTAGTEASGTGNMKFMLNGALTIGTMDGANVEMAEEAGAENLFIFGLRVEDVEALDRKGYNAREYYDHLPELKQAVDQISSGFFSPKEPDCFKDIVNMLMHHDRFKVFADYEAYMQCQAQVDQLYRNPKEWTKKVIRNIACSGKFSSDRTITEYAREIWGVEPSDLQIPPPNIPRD
B6: Emerin (Homo sapiens), P50402 (parent)
chain: B2 chain

Variants of: B1
Settings: with spg21_human SPG21, Q9NZD8

Variant | effect of a mutation on the interaction
W94R | disrupting interaction strength

Variants of: B2
Settings: with fate1_human FATE1, Q969F0

Variant | effect of a mutation on the interaction
D72V | with no effect
S54F | with no effect
P183T | with no effect
P183H | with no effect

Variants of: B3
Settings: with scnd1_human SCAND1, P57086

Variant | effect of a mutation on the interaction
P256L | with no effect
G244E | with no effect
Q248E | with no effect
H806D | with no effect
I678V | with no effect

Variants of: B4
Settings: with zn408_human ZNF408, Q9H9D4

Variant | effect of a mutation on the interaction
L107V | with no effect

Variants of: B5
Settings: with pygb_human PYGB

Variant | effect of a mutation on the interaction
N377K | with no effect
N339S | with no effect

Variants of: B6
Settings: with vapb_human VAPB

Variant | effect of a mutation on the interaction
S54F | with no effect
D72V | with no effect

Variants of: B6
Settings: with tri42_human TRIM42, Q8IWZ5
Sequence of tri42_human TRIM42, Q8IWZ5 (Q8IWZ5 whole entry): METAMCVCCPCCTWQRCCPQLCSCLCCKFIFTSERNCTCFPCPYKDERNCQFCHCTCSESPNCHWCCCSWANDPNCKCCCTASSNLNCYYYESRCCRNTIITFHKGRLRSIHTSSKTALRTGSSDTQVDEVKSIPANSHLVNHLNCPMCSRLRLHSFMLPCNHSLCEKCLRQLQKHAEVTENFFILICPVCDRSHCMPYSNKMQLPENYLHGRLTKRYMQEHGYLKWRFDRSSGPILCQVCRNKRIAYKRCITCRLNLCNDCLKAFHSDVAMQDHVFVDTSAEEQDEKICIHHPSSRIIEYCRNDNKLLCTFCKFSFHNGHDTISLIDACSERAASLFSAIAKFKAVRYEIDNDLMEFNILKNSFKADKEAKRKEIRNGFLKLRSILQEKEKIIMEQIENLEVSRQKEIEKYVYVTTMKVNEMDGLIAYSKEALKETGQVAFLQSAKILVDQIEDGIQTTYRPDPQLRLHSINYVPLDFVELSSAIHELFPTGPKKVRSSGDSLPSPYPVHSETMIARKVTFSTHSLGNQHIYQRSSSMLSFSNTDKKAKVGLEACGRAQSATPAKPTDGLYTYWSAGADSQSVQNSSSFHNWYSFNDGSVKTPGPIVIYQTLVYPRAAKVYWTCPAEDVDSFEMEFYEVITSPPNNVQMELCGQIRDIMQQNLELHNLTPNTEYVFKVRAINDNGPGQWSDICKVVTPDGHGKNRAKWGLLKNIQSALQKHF

Variant | effect of a mutation on the interaction
S54F | with no effect
D72V | with no effect

Variants of: B6
Settings: with stx4_human STX4, Q12846
Sequence of stx4_human STX4, Q12846 (Q12846 whole entry): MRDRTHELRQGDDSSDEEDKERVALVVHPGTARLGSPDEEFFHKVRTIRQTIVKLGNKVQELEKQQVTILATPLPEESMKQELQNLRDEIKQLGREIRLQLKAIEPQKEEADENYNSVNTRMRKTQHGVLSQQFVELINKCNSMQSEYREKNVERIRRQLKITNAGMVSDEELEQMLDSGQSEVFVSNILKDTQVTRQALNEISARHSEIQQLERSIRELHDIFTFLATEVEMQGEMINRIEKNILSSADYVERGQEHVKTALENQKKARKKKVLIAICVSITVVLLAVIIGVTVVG

Variant | effect of a mutation on the interaction
S54F | with no effect
D72V | with no effect

Variants of: B6
Settings: with meox2_human MEOX2, P50222
Sequence of meox2_human MEOX2, P50222 (P50222 whole entry): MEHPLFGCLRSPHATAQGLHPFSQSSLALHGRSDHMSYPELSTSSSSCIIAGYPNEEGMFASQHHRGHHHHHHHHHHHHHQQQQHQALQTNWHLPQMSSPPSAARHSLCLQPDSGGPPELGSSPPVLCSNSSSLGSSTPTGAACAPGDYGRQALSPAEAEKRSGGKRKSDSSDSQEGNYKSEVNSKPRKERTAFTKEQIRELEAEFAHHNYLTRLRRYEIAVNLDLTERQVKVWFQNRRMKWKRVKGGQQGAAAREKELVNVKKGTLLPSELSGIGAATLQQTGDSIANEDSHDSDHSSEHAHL

Variant | effect of a mutation on the interaction
S54F | with no effect
D72V | with no effect

Variants of: B6
Settings: with ccd33_human CCDC33, Q8N5R6
Sequence of ccd33_human CCDC33, Q8N5R6 (Q8N5R6 whole entry): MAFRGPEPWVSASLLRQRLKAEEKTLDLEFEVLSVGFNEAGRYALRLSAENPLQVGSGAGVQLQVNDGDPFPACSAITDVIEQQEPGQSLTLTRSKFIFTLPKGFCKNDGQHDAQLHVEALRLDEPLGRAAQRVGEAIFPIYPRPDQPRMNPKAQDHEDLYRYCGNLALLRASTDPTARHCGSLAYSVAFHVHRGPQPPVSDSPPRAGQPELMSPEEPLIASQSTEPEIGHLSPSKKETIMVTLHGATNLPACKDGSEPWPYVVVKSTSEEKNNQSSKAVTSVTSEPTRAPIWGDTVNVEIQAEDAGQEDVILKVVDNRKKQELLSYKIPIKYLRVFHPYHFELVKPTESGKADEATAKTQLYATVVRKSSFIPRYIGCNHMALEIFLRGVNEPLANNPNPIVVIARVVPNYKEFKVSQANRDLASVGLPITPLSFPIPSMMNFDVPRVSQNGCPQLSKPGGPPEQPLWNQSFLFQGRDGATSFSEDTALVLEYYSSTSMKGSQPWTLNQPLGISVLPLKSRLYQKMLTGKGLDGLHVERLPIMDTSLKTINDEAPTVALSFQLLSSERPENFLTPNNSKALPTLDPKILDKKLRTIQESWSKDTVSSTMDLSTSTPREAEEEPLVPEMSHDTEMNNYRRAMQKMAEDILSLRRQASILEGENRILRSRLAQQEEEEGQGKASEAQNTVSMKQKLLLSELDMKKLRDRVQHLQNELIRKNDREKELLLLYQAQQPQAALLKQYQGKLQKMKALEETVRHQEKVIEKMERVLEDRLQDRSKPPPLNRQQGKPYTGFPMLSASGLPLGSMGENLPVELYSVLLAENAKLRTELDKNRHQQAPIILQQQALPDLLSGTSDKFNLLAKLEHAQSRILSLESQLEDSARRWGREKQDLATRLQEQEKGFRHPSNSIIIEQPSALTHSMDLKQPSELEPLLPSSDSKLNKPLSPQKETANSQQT

Variant | effect of a mutation on the interaction
S54F | with no effect
D72V | with no effect

From IntAct's records for PubMed 25910212
